The experiment has as its target CD22 (UniProt P20273). Kind of experiment: cell-based or functional assay.

From US20140094417A1 come the findings set out here.

Sequence of UniProt P20273 (P20273 20-847 limits assumed): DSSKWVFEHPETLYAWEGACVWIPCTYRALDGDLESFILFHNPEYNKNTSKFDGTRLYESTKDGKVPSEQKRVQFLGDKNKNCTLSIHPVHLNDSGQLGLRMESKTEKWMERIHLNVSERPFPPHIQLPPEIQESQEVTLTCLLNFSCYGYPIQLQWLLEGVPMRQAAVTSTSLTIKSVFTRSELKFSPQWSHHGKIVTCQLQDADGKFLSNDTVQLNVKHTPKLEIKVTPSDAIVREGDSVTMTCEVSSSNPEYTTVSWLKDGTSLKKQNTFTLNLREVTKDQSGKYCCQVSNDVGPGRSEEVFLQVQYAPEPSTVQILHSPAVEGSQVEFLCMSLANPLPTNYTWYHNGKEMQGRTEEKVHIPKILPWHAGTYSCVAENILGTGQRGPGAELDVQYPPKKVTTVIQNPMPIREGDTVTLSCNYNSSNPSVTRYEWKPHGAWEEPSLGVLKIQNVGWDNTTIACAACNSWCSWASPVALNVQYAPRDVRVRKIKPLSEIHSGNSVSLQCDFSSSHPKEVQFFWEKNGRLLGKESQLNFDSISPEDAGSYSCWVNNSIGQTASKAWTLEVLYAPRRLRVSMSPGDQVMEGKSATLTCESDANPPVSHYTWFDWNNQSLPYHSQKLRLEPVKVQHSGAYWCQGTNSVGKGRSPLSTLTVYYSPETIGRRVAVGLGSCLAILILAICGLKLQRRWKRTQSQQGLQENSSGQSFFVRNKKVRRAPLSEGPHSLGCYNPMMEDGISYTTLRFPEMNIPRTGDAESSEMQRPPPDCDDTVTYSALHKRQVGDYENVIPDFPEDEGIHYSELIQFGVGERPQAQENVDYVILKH

Substance HA22-LR came in with an IC50 (ng/ml), cytotoxic activity on CA46 of 0.11 ng/mL; an IC50 (ng/ml), cytotoxic activity on Daudi of 0.18 ng/mL; an IC50 (ng/ml), cytotoxic activity on Raji of 0.41 ng/mL.
HA22-LO10 came in with an IC50 (ng/ml), cytotoxic activity on CA46 of 0.38 ng/mL; an IC50 (ng/ml), cytotoxic activity on Daudi of 0.3 ng/mL; an IC50 (ng/ml), cytotoxic activity on Raji of 1.5 ng/mL; an activity on CA46 relative to HA22-LR of 29%. The activity on Daudi relative to HA22-LR is 60% and the activity on Raji relative to HA22-LR was 27%.
